Reference: a protein production outcome set (Wang et al. 2014)

test: label from the status in PepcDB records

Sequence	protein production
MDPHVSHSAHLFSLRIAHALNEACVKDRYSFKRFGQDLLAGLTVGIIAIPLAMALAIASGVPPQYGLYTAIVGGFIIAMTGGSRYSVSGPTAAFVVLLYPIAQQFGLAGLLIATVMSGMMLVAMAMLRLGRLILYIPESVTLGFTAGIGVVIATLQLKDFFGLQIEHMPEQYFAKLMALGQALPSLHLPSLFIAAATLATMLLWPRLKIPVPAHLPAIALGSILALILNAMGAEIETIGTRFHYQLTDGGIGSGIPAVLPHFEWPWLQTGPNGQAFEFNLAAFQALLPAAFAIAMLGAIESLLCAVVLDGMTGKRHSANSELLGQGIGNIIAPFFGGIPATAAIARSAANVKAGAQSPIASMIHALVVLIGLVALAGILAYLPMSAMAALLLVVAWNMSEAPKAVHLLKTAPTSDILVFLSCFSLTVIFDMVIAISVGIILAALLFMKEIAEMTKLYDISSNKRYVDQSLPADWAVLKINGPLFFAAADRIFAEIASLTQDKQVIVLYLDGVSILDAGGLAALSKLIEKCKLNQTKLLITDLQFQPIRTLAKAKIQPVEGVLKFYPTLREALTEAPSPELEATPEATD	failed
MDPKSCENSSDVKGQTSDSVSKKVLIEEEEDVKKPQQGKENDSRMAKDVVSCSSNISAHVVHEEVADNVTAVSCNEAESDISKAKAKEFHTIDLSGVGERICRICHFGSDQSPEASGDDKSVSPELIEIGCKCKNELGLAHFHCAEAWFKLRGNR	failed
MDPSQFNPTYIPGSPQMLTEENSRDDSGASQISSETLIKNLSNLTINASSESVSPLSEALLRRESVGAAVLREIEDEWLYSRRGVRTLLSVQREKMARLRYMLLGGVRTHERRPTNKEPKGVKKESRPFKCPCSFCVSNGWDPSENARIGNQDTKPLQP	failed
MDPTVSLQLSVDRSSPVPLYFQLSQQLEAAIEHGTLTPGSLLGNEIELAARLGLSRPTVRQAIQSLVDKGLLVRRRGVGTQVVHSQVKRPLELSSLYDDLEAAGQRPATQVLLNTLVPASAEVAAALGVAEGSDVHQVERLRLAHGEPMAYLCNYLPTGLLGLDSEQLEATGLYRLMRAAGITLHSARQSVGARAATAVEGERLGEPEGAPLLTMQRTTFDDTGRAVEFGTHTYRASRYSFEFQLLVRP	failed
MDQFEYIITLEFGNQNQVESAYQIFKSIPKKLKAKSIGEESIKSNNQDWQDWRVCDLEIDMITDFKNQTSKEEESDLITSQYLGHGIIRLFKLSNANNTLNEKEILTIPGDDTMICILFVPTYFTVHDLLHFYIGDDIVNKQVSNFRILRNQQKGMGFNFTVLIKFRNALDAKNFKEEFNGKSFSRMDPETCHVISVKEIVFQKKLFQRPAANEDFPYLLTDPFTVKKKKELVKVELPTCPVCLERMDSETTGLVTIPCQHTFHCQCLNKWKNSRCPVCRHSSLRLSRESLLKQAGDSAHCATCGSTDNLWICLICGNVGCGRYNSKHAIKHYEETLHCFAMDIRTQRVWDYAGDNYVHRLVQNEVDGKLVEVGGSGDDDNNDIGNSDELQNVVYGNRSKNGEKSNSNKKDGELAANFLRHREYHLEYVQVLISQLESQREYYELKLQEKDQTASDSSNVESLKKSMEDLKLQFQVTQKEWQKREMAQKSKLEEDMLVIEGLQANLDHLSKKQEQLERENKALEESKQDLEEQVKDLMFYLDSQEKFKDADESVKEGTILIQQPHGAAQASKSKKKRNKNKKAGK	failed
MDQKEAPSFTEASVHDPSVIKVEDTFYVFGSHLAAAKTEDLRNWTQIATHVHEGNPLIPNVFVELAEAFEWANSNTLWAADVIQLEDGRFYMYYNACQGDAPRSALGVAVADDIEGPYENLGVFLKSGMWGEESPDGTIYDANVHPNAIDPHVFFDEEGKLWMVYGSYSGGIFILEMDPDTGFPLPGQGYGTHLMGGNHSRIEAPYIHYDKETEYYYLYVTFGGLDSTGGYNMRVARSKQPDGPYVDGEGHLMSEVRGAPGTLFDDASIEPYGVKQMGNFLFKRELGERGTGYVSPGHNSVYYDDEVDKIFLFFHTRFPERGEAHEIRVHQMFMNRKGWPVIAPYRYTGESLEKVKAKEVIGDYQWINHGKEISAEIKESVTVRLEKNHKVLGDVTGKWKKVGDYHVELQIDGETYYGVFLRQWDPVAEREVMTFTALSEEGIAIWGSQLEEKTDNEIVDAVYDDLTLEGTIISDVELPTRGMRQTTIAWSSSHEEVLSSSGKVNRPEIGEDDVVVSLTATISKGSAERIKTFELVVPGQTEGGLVAHYPLNGTLENAVDDARFGSGTVTGNRIDNPGGTIAFEQGIDGEAAVFDGTTGIRLPNGLISRNTYTVSFWLNPEQLTEFTTAFFAARSEHHWLSFVPRGHSGMNHDTMLWAGSAQWYDAGTGVKLPVGEWSHVAFSVDNGEIVIYLNGEERFRGENFPNLFTTPNAYFALGVNHWDAPFQGMIDELRIYDGVALTREEIVHLAKQKLEHHHHHH	not failed
MDQLFRYPLHQIPLVAMAIIIALSVHEFAHAYVAYKFGDDTAKRQGRLTLSPMAHLDPIGMIAVLILGFGWARRVPVNPYNFKRPRLAGILVSIAGPISNLILSAIGLIIWYSLLTFGVLDSIPFAVADTLAQFFQIFIMLNIVLLVFNLLPIPPLDGYRVVEDLAPTNIRAKMTQYEKYGAIALLILVITPLSNYTIQPIFSVVIPYVFAFLNSIIAPIFGLL	failed
MDQLNKITPTGTEKVSESSCNKLEETCTKCGKNIYKKVTILGIDRIVKTMCECESKAWHEKRQHEEMLKKQNRLNELITNSLMDEKFRESNFENWDFNKGSRSMYNLGRRYADNFKECKQQGLGLLIYGSAGNGKTYLASAIANELLKQYIPVVCVSINGLLSRIQKTYNSWGKEAESDIIRSFINADLLIIDDLGTEKSSEWSRSMIYNIVDSRYRSKLPLIITSNLEINPSKRHGVLADQYHERTESRIFEMCTPVENTSKSIRIEEAKKKTELLRKILY	failed
MDQTAEEKMVRERIRKKVNEVSSASQSLLSPVQDHINFTLQKAYFKCAYECFDRTRTHAEISRCAESCSVPITNAQNYFDNEMSVFQERLNRSLVVCQDKFEVAKQQKTRSEAVNDLEHCVNQTVDEAVKTLPNLVSRMKKALSITD	failed
MDRGGMKHREGGPGPRTEMSGYSVYEEENERLTENLKMKTSALKSLSIDIGNEVKYHNKMLGEMDSDFDSTGGLLGSTMGRLKILSRGSQAKLLCYMMLFAFFVFFVIYWFIKLR	failed
MDRIQEMTLFAALAGQTSFTGVARHVGLSTATVTRAVASLESRLGILLVVRTTRNMRLTKAGQRFAEDCRRLLADLSEAENAAAGVHALPAGTLTVTAPQMFGALHVTPVLTRFLSEYPAVDIRAILVDRVVSMLDEGVDVAVRIGALRDSSLTAIRVGSVRRMVCASPVYLTQHGTPRHPDDLQQHATISTSAPERPPHWAFRVDDQDYSVNVASRLSLTSFQASINAALQHWGLTQVPHYQIREHLHNGRLVCVLEDFEIAPEPVHVVYSEGRRGSSRVRSFVDFCVSALREDLQFEAAG	failed
MDRMWSPWRSAYVSEANDREPTDDESIFTALLREERDEENLILWRGEHVFVIMNRHPYNSGHLLILPYREVTQYDALNAPEQQALTAALDRCMGWLREAVSPDGFNVGMNLGRAAGAGIPDHLHAHVVPRWDGDTNFMATTANTKVLPEDLQTTYGKLRAAMAPDARDTTKPAAQKPSE	failed
MDRMYEQNQMPHNNEAEQSVLGSIIIDPELINTTQEVLLPESFYRGAHQHIFRAMMHLNEDNKEIDVVTLMDQLSTEGTLNEAGGPQYLAELSTNVPTTRNVQYYTDIVSKHALKRRLIQTADSIANDGYNDELELDAILSDAERRILELSSSRESDGFKDIRDVLGQVYETAEELDQNSGQTPGIPTGYRDLDQMTAGFNRNDLIILAARPSVGKTAFALNIAQKVATHEDMYTVGIFSLEMGADQLATRMICSSGNVDSNRLRTGTMTEEDWSRFTIAVGKLSRTKIFIDDTPGIRINDLRSKCRRLKQEHGLDMIVIDYLQLIQGSGSRASDNRQQEVSEISRTLKALARELECPVIALSQLSRGVEQRQDKRPMMSDIRESGSIEQDADIVAFLYRDDYYNRGGDEDDDDDGGFEPQTNDENGEIEIIIAKQRNGPTGTVKLHFMKQYNKFTDIDYAHADMM	failed
MDRNLKIFITVMLILSVISQFLPFKRDAVSLINVITNLAAFMGLSYACIYSRKVYPHLYLTLLLLSAAQFFSFLGDFTWFILESILSLNPFPSVADLFYLLYYPIFAAGIFTIPIKRYSDLRSIIDLLIILVASASAAWVFLLEPTVFAGGDFTEVLVSTLYVLGDLLIVFMIMDLIINKLGHLRSRTLHVFLASIIILLAADISFTYQNLTGIYAGGTPQDLLWAFSYILLLIAVNEFFKEDWSKPLYVEKKVTAVTYTPYIFIILFYLLTAYSVIKGGAEKSTVLLVSLGFIIVLFILRQHLSMKENMALLNDVENERRRAENYLEVAGSLIMVLDEKTRVKLINRRGLEILECDAGEVAGKNWFMTFVPPEDRGWREKLYTEKISSGSKGYHLTGEILTCKGDRKTVTWHVVFLREDGEFRGSIISGDDITELQRATRALEMSEMRYREIFELAPSPIISVGDDLIIRDCNRRAESVLGYQRGELIGRNLMDLIHPEDAGEDFEGERRLLRSNGDVIYADIGVARVGDERIIIIEDQTEIRRSLQEKELLLREIHHRVKNNLQIISSLLSIQERQLESEELSDVLRESRERIRSIALVHEHLYRSTNLRTIRIRNYLNNILSKLSQGQTHGKDVRISSSIEDLEFNLETSLPIGLMVNELVSNSLKHSGADNITVELRSLNGTLELTVKDDGIGLESPEVLEKSGSMGWYLIRALTDQLDGELKIETEDGLSVSLRFRELGYRERY	failed
MDRPERSEVLSPEDFLQAMPIGKTASILDLGAGTGFLTIPAAKLVDNTVFALDLDAKMLELIESKAKEAGLANVETLEASMDDIPLEANSVDVVLASLVLHEADSLADVLREVSRVVKTGGYFASLEFDTKGTDLKGPPMEIQISAEKLKEELAGFGFEVVKNWQLDEGMYVSIAVKKLEHHHHHH	not failed
MDRRHEIYEWFRINRFKVDMTATCLLILLFGPVYLVADRPWLFLLSCSLLLPLAWRRTRPAVAAGVVILVCLVQWAVAAEPVAGQIAVPLVIYATAAYGPAWASRTVLLAGLLGGVMLTTRLFSTTAESGILGLTIGALYTVLIWMLVLVSWTLGDLTRVRRLQLQALEDRTRRLEVEQMQERKLAAADERSHIAREMHDIVAHSLSVIITQADGARYAAAAKPELATEALATIAATGRDSLGEMRRLLGVLRSDDDSPTRPQPRLSDLDELLLGFRAATLQVTFEQSGAPRRALPAGAELTAYRIIQEALTNVMKHAGPRATAAVTLAWQARGLQVDVVDDGRGAAADPPTAGGGNGLRGMGERVSLYDGSLTAGPEQGGGFRVSAFIPYSEA	failed
MDRRRFLVGLLGLGLARGQGLRVEEVVGGLEVPWALAFLPDGGMLIAERPGRIRLFREGRLSTYAELSVYHRGESGLLGLALHPRFPQEPYVYAYRTVAEGGLRNQVVRLRHLGERGVLDRVVLDGIPARPHGLHSGGRIAFGPDGMLYVTTGEVYERELAQDLASLGGKILRLTPEGEPAPGNPFLGRRGARPEVYSLGHRNPQGLAWHPKTGELFSSEHGPSGEQGYGHDEVNLIVPGGNYGWPRVVGRGNDPRYRDPLYFWPQGFPPGNLAFFRGDLYVAGLRGQALLRLVLEGERGRWRVLRVETALSGFGRLREVQVGPDGALYVTTSNRDGRGQVRPGDDRVLRLL	not failed
